Source: PMC10764318 (Nature Communications, 2024)
Changes are numbered by the printed parent chain.

B1: CB6 (antibody, V domains shown)
VH: EVQLVESGGGLVQPGGSLRLSCAASGFTVSSNYMSWVRQAPGKGLEWVSVIYSGGSTFYADSVKGRFTISRDNSMNTLFLQMNSLRAEDTAVYYCARVLPMYGDYLDYWGQGTLVTVSS
VL: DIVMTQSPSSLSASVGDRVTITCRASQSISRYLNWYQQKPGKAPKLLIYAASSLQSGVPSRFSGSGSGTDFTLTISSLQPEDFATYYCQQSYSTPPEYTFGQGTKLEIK
notes: control antibody, IgG1; also called antigen site B (Class I); source: Expi293F, purified; expressed as human IgG1
B2: A19-46.1 (antibody, V domains shown)
VH: QVQLVESGGGVVQPGRSLRLSCAASGFTLSSYGMHWVRQAPGKGLEWVAVISYDGSNKYYVDSVKGRFTISRDNSKNTLYLQMNSLRAEDTAVYYCARGWAYWELLPDYYYGMDVWGQGTTVTVSS
VL: QTVVTQEPSFSVSPGGTVTLTCGLSSGSVSTAYFPSWYQQTPGQAPRTLIYGTNTRSSGVPDRFSGSILGNKAALTITGAQADDESDYYCVLYMGRGIVVFGGGTKLTVL
notes: control antibody, IgG1; also called antigen site D (Class II); source: Expi293F, purified; expressed as human IgG1
B3: LY-CoV-555 (antibody, V domains shown)
VH: QVQLVQSGAEVKKPGSSVKVSCKASGGTFSNYAISWVRQAPGQGLEWMGRIIPILGIANYAQKFQGRVTITADKSTSTAYMELSSLRSEDTAVYYCARGYYEARHYYYYYAMDVWGQGTAVTVSS
VL: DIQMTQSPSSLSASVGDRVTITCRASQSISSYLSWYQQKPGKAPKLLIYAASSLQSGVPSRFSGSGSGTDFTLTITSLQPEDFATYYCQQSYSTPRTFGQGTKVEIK
notes: control antibody, IgG1; also called antigen site E (Class II); source: Expi293F, purified; expressed as human IgG1
B4: A19-61.1 (antibody, V domains shown)
VH: QVQLVESGGGVVQPGRSLRLSCAASGFTFSSYAFHWVRQAPGKGLEWVAVISYDGSNQYYADSVKGRFTISRDNSKNTLYLQMNSLRADDTAVYYCARDLAIAVAGTWHYYNGMDVWGQGTTVTVSS
VL: DIQMTQSPSSVSASVGDRVIITCRASQGISSWLAWYQQKPGKAPKVLIYDASSLQSGVPSRFSGSGYGTDFTLTISSLQPEDSATYYCQQAKSFPITFGQGTRLEIK
notes: control antibody, IgG1; also called antigen site F (Class III); source: Expi293F, purified; expressed as human IgG1
B5: WRAIR-5004 (antibody, V domains shown)
VH: QVQLVQSGAEIKQPGASVKLSCKASGYTFTTYYIHWVRQAPGQGLEWIGLISPYNGNRGYAQNFQGRVTITTDTSTSTGYMELSSLRSEDTAVYYCTRERVVAAAGYFDYWGQGVLVTVSS
VL: SYELTQPPSVSVSPGQTARITCGGDNIGSKNVQWYQQKPAQAPVLVIYDDSERPSGIPERFSGSNSGNTATLTISGVEAGDEAGYSCQVWDSSPDHYIFGAGTRLTVLG
notes: also called CoV_5004; source: Expi293F, transfected, purified (Protein A magnetic beads)
B6: WRAIR-5001 (antibody, V domains shown)
VH: QVQLVQSGAEVKKPGASVKLSCKASGYTFTSYSINWVRQAPGQGLEWMGWVNPSNGVTVYAQKFQGRVTMTRDTSTSTAYMELSSLRFEDTAVYYCARERDQLVVYFDHWGQGALVTVSS
VL: SYELTQPRSVSVSPGQTARITCGGDNIASKNVHWYQQKLAQAPVLVIYYDSDRPSGIPERFSGSNSGNTATLTISGVEAGDEADYYCQVWDSYSGHHVLFGGGTRLTVLG
notes: also called CoV_5001; source: Expi293F, transfected, purified (Protein A magnetic beads)
B7: WRAIR-5005 (antibody, V domains shown)
VH: QVQLQESGPGLVKPSETLSLTCAVSGSSVNSGYGWTWLRQPPGKGLEWIGYIGGGSGSTIYNPSLKSRLTISKDTSKNQFSLKLSSVTAADTAVYYCASLDYGTTYSWFDVWGPGVLVTVSS
VL: SYELTQPRSVSVSPGQMARITCGGDNIGSKSVQWYQHKPPQAPVLVIYADSERPSGIPERFSGSNSGNTATLTISGVEAGDEADYYCQVWDSSSDVLFGGGTRLTVLG
notes: also called CoV_5005; source: Expi293F, transfected, purified (Protein A magnetic beads)
B8: WRAIR-5011 (antibody, V domains shown)
V domain 1: EVQLVQSGAEIKQPGASVKLSCKASGYTFTSYYIHWVRQAPGQGLEWIGLISPYNGNRAYAQNFQGRVTITTDTSTSTVYMELSSLKSEDTAVYYCAGEEYSNYGYFDLWGPGTPITISS
V domain 2: B5 VL with G84D, S86Y, P94G
notes: also called CoV_5011; source: Expi293F, transfected, purified (Protein A magnetic beads)
B9: WRAIR-5020 (antibody, V domains shown)
VH: QVQLQESGPGLVKPSETLSLTCAVSGASISSYWWGWIRQPPGKGLEWIGRISGSSGSTSYNPSLKSRVTISTDTSKNQFSLKLSSVTAADTAVYYCASRITIFGLLRSYWGQGVLVTVSS
VL: EIVMTQSPATLSLSPRERATLSCRASQSVSSNLAWYQQKPGQAPRLLIYYASNRATGIPDRFSGSGSGTDFTLTISSLEPEDVGLYYCQQESNWPWTFGQGTKVEIKR
notes: also called CoV_5020; source: Expi293F, transfected, purified (Protein A magnetic beads)
B10: WRAIR-5021 (antibody, V domains shown)
VH: QVQLQESGPGLVKPSETLSLTCAVSGYSISSGYYWGWIRQPPGKGLEYIGYFSGTTGSTYYNPSLKSRVTISKDTSKNQFSLKLNSVTAADTAVYYCARQPPRFDVWGPGVLVTVST
VL: DIQMTQSPSSLSASVGDTVTITCRASQGISNFLNWYQQKPGKAPKLLIYDASRLESGVPSRFSGSGSGTEFTLTISSLQPEDFATYHCLQYDSDPFTFGPGTKLDIKR
notes: also called CoV_5021; source: Expi293F, transfected, purified (Protein A magnetic beads)

How the values were obtained:
[1] = target: T1, SARS-CoV-2 RBD (318-514), Avi-tagged, biotinylated (SARS-CoV-2, UniProt P0DTC2, biotin (BirA biotinylation kit)); assay: BLI; details: both partners purified
T1 construct: source: Expi293F, purified (Ni-NTA); biotinylated with the BirA kit

SARS-CoV-2 WA-1 RBD = target: T2, SARS-CoV-2 WA-1 RBD (SARS-CoV-2, UniProt P0DTC2 331-527); assay: BLI; details: both partners purified
T2 construct: source: Expi293F, purified (Ni-NTA)

| Binder | binding result [1] | Kd (SARS-CoV-2 WA-1 RBD) | koff (SARS-CoV-2 WA-1 RBD) | kon (SARS-CoV-2 WA-1 RBD) |
| --- | --- | --- | --- | --- |
| B1 | binds |  |  |  |
| B2 | binds |  |  |  |
| B3 | binds |  |  |  |
| B4 | binds |  |  |  |
| B5 |  | 0.72 ± 0.015 nM | 0.000154 s⁻¹ | 199000 M⁻¹ s⁻¹ |
| B6 |  |  | 0.000119 s⁻¹ | 209000 M⁻¹ s⁻¹ |
| B7 |  | 1.14 ± 0.013 nM | 0.000238 s⁻¹ | 209000 M⁻¹ s⁻¹ |
| B8 |  | 0.69 ± 0.013 nM | 0.000147 s⁻¹ | 215000 M⁻¹ s⁻¹ |
| B9 |  | 13 ± 0.1 nM | 0.00273 s⁻¹ | 210000 M⁻¹ s⁻¹ |
| B10 |  | 1.09 ± 0.007 nM | 0.000353 s⁻¹ | 325000 M⁻¹ s⁻¹ |
